The supplement of paper PMC9732359
± gives the uncertainty stated by the source.

Test: protein stability index of a GFP-peptide fusion (yeast GPS) (PSI 1-4); higher = more stable; sorted into four equal gates, so the index is relative within each strain
In short: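 Yeast carrying a pooled library were grown to mid-log phase in leucine-free medium. Each library plasmid expresses Cherry and has a tiled 17-residue yeast protein peptide fused downstream of GFP. Cells were sorted into four equal gates by GFP/Cherry ratio, and plasmids from each gate were PCR-amplified, Illumina-sequenced and assigned to strains by barcode. Summing, across gates, the read frequency times the gate number gave each peptide's protein stability index.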

| Sequence | protein stability index (doa10∆) | protein stability index (pdr5∆) | protein stability index (san1∆) | protein stability index (ubr1∆) |
| --- | --- | --- | --- | --- |
| IKLDIVVGQNQLIDQFE [SNF5] | 1.88 ± 0.075 | 2.07 ± 0.098 | 2.11 ± 0.092 | 2.25 ± 0.085 |
| AEEDSLLSGEDLTLDDI [YJL039C/NUP192] | 3.62 ± 0.13 | 3.4 ± 0.11 |  | 3.43 ± 0.13 |
| STKVENSAIIQNLRKEL [YIL149C/MLP2] | 3.2 ± 0.084 | 2.88 ± 0.12 | 3.28 ± 0.071 | 3.3 ± 0.051 |
| NIKSNDFSIRKTCAKSV [ECM29] | 2.55 ± 0.087 | 2.24 ± 0.1 | 2.27 ± 0.18 | 2.83 ± 0.15 |
| IAKPNTANAKHTSSNSR [SMB1] | 2.93 ± 0.069 | 2.73 ± 0.094 | 2.72 ± 0.089 | 2.87 ± 0.067 |
| VYLSLLDKDSSQSSAAA [RPN6] | 3 ± 0.16 | 3.21 ± 0.069 |  | 3.03 ± 0.071 |
| NEVYSAYVVNDTAPKPN [DLS1] | 3.47 ± 0.12 | 3.1 ± 0.12 | 2.95 ± 0.099 | 3.25 ± 0.066 |
| TQLDDLQHELMISIIKL [YML103C/NUP188] |  | 2.29 ± 0.1 | 2.19 ± 0.28 | 2.51 ± 0.093 |
| LNRSHFATTKAECISLI [ECM29] | 1.51 ± 0.061 | 2 ± 0.051 | 1.69 ± 0.092 | 1.66 ± 0.038 |
| LIIIEKKQKLIEEQDKK [ITC1] | 3.12 ± 0.13 | 2.9 ± 0.21 | 2.96 ± 0.17 | 2.89 ± 0.084 |
| VAARAEILRIHSRKMNL [RPT6] | 2.59 ± 0.056 | 2.53 ± 0.054 | 2.5 ± 0.081 | 2.64 ± 0.068 |
| LKRNSWPKTRGVAMNPV [RPL2A] | 2.95 ± 0.18 | 3.32 ± 0.2 | 3.2 ± 0.16 | 2.83 ± 0.085 |
| KQIDIPNFNVEIMQQKF [ECM29] | 2.4 ± 0.25 | 2.5 ± 0.16 | 3.03 ± 0.11 | 3.11 ± 0.097 |
| PSKVSKIDSHVVLSFSG [PRE6] | 1.71 ± 0.062 | 1.77 ± 0.058 | 1.74 ± 0.12 | 1.87 ± 0.057 |
| TLKKNNVAVDIINFGEI [RPN10] | 2.97 ± 0.081 | 3.01 ± 0.092 | 3.02 ± 0.1 | 2.74 ± 0.063 |
| LIERYYPKLTLDFQTNK [RPS17A] | 3.12 ± 0.074 | 3.01 ± 0.061 | 3.02 ± 0.045 | 2.74 ± 0.053 |
| IIPQDILDCVVTNSMRQ [YJR042W/NUP85] | 3.01 ± 0.069 | 3.15 ± 0.072 | 3.35 ± 0.044 | 2.94 ± 0.063 |
| VVKGRVEKTLLSDVAFY [RPO31] | 2.16 ± 0.22 | 3.14 ± 0.23 |  | 2.52 ± 0.15 |
| HFRAPSRILYKAIRGMV [RPL16B] | 2.19 ± 0.096 | 2.67 ± 0.059 | 2.14 ± 0.1 | 2.21 ± 0.062 |
| EGLDLLKLCVQELEKRM [PRE1] | 2.04 ± 0.095 | 2.32 ± 0.076 | 2.19 ± 0.16 | 2.06 ± 0.059 |
| SKLPDPERWLPLRDRST [SRP72] | 2.09 ± 0.067 | 2.91 ± 0.068 | 2.55 ± 0.077 | 2.46 ± 0.058 |
| DPLNSNIFSEAVKNKYN [PRP28] | 1.81 ± 0.17 | 2.74 ± 0.11 | 3.02 ± 0.09 | 2.92 ± 0.096 |
| LKSAIRDEIAKNTELSY [RPN12] | 1.41 ± 0.058 | 2.16 ± 0.1 | 1.51 ± 0.097 | 2.46 ± 0.056 |
| DQEKKYGMSITETFEKP [RPB2] | 2.85 ± 0.11 | 3.4 ± 0.18 | 3.15 ± 0.096 | 3.5 ± 0.1 |
| HSLAYLLENFANFKTSK [RRP6] | 2.68 ± 0.22 | 2.05 ± 0.14 | 2.81 ± 0.19 | 2.53 ± 0.17 |
| FSQKEMAFNLLGLLTPE [FAS2] | 2.52 ± 0.077 | 2.32 ± 0.072 | 2.18 ± 0.12 | 2.42 ± 0.064 |

| Sequence | protein stability index (doa10∆) | protein stability index (pdr5∆) | protein stability index (san1∆) | protein stability index (ubr1∆) |
| --- | --- | --- | --- | --- |
| EMVKDRGYFITQEEVEL [RPB5] | 2.62 ± 0.071 | 2.08 ± 0.071 | 1.74 ± 0.066 | 2.1 ± 0.042 |
| TAIGIATKEGVVLGVEK [PUP2] | 3.15 ± 0.14 | 3.31 ± 0.11 | 2.79 ± 0.16 | 3.11 ± 0.058 |
| LIPEDKRDQYLKSASKE [RPL28] |  | 3.1 ± 0.19 | 1.95 ± 0.18 | 3.36 ± 0.098 |
| TAGAAANALGGLGVNRR [SSN3] | 3.51 ± 0.11 | 3.04 ± 0.11 | 3.38 ± 0.089 | 3.24 ± 0.1 |
| SQDTKVICSVTGPIEPK [RRP46] | 1.68 ± 0.07 | 1.72 ± 0.072 | 1.94 ± 0.11 | 2.12 ± 0.076 |
| EEYRKQLDKKNELQKFQ [SMC1] | 3.44 ± 0.22 | 3.43 ± 0.12 | 2.82 ± 0.079 | 3.45 ± 0.1 |
| DDQCMLITTYSKLSKNI [SIN4] | 1.97 ± 0.065 | 2.42 ± 0.076 | 1.87 ± 0.2 | 2.01 ± 0.038 |
| ARGMTSKPAGFMKKLRA [RPS15] | 3.15 ± 0.16 |  | 2.64 ± 0.26 | 3.6 ± 0.14 |
| RFNVVKVSAAAGKANKQ [RPS11A] | 1.44 ± 0.068 | 1.38 ± 0.087 | 2.92 ± 0.18 | 2.22 ± 0.067 |
| VIVELLPQSEWKAPSSI [DIS3] | 2.79 ± 0.071 | 2.57 ± 0.062 | 2.02 ± 0.062 | 2.1 ± 0.048 |
| PTSVKLLKTTVPIVSKK [POP3] | 3.21 ± 0.1 | 2.94 ± 0.068 | 2.86 ± 0.083 | 3 ± 0.075 |
| SAKAELEKLVDHHPEGL [PRE10] | 2.84 ± 0.065 | 2.91 ± 0.055 | 2.55 ± 0.068 | 2.75 ± 0.048 |
| KIRRAARDLLTRDEKDP [RPS9A] | 2.33 ± 0.08 | 2.49 ± 0.065 | 2.3 ± 0.093 | 2.58 ± 0.078 |
| NGNWEVGVHIADVTHFV [DIS3] | 2.55 ± 0.052 | 2.09 ± 0.061 | 2.9 ± 0.047 | 2.62 ± 0.048 |
| GNISSSTVKKKDIVNIS [REC8] | 3.03 ± 0.063 | 3.07 ± 0.056 | 2.88 ± 0.044 | 3.02 ± 0.05 |
| QQQQQQQNPKFLQSQRQ [SWI1] | 2.84 ± 0.048 | 2.82 ± 0.052 | 2.79 ± 0.045 | 3.25 ± 0.064 |
| AMSTVTLGVVGKSEKLS [SKI6] | 2.81 ± 0.079 | 3.19 ± 0.081 | 2.75 ± 0.099 | 2.93 ± 0.073 |
| CLTKFQDEEQTEHLTEL [YCG1] | 3.33 ± 0.13 | 3 ± 0.15 | 3.46 ± 0.075 | 2.85 ± 0.11 |
| SFSFLNRADGTGEAQVD [YLR335W/NUP2] |  | 3.39 ± 0.23 |  | 2.78 ± 0.29 |
| QQQGQIPQSQQVPQVRS [SNF5] | 2.37 ± 0.036 | 2.73 ± 0.042 | 2.45 ± 0.063 | 2.36 ± 0.048 |
| EKFSSFIESIVVDFKNK [SNF12] | 2.69 ± 0.065 | 2.84 ± 0.078 | 2.74 ± 0.081 | 2.77 ± 0.061 |
| KPKNTKENLSKSSWRQE [SIR4] | 1.35 ± 0.076 | 1.21 ± 0.049 | 1.21 ± 0.1 | 1.5 ± 0.049 |
| KIIELMNKIFTIFKSGE [YML103C/NUP188] | 3.01 ± 0.08 | 2.22 ± 0.083 | 1.79 ± 0.11 | 2.8 ± 0.12 |
| QARIILNHILEKSTQLQ [YGR119C/NUP57] | 2.83 ± 0.12 | 3.09 ± 0.072 | 2.63 ± 0.12 | 2.79 ± 0.043 |
| CSIEPIAAKLINSGLYS [YML103C/NUP188] | 1.77 ± 0.066 | 1.29 ± 0.065 | 1.67 ± 0.12 | 1.19 ± 0.062 |
